Reference: patent US20200040082A1 (Seagen, published 2020)
Each block holds one binder with its values, some of them ahead of it.

Tests used:
[1] = target: T1, discontinuous epitope mimic CKDRVAPGPGLGLTLQCI2NADLGWHISPSFKC (Cys-acetamidomethyl (Cys-acm, printed as '2') at position 19; Cys at positions 1, 17 and 33 used for the T3 CLIPS scaffold (as for Set 8)); assay: Pepscan-based peptide array ELISA, discontinuous epitope mimics
T1 peptide: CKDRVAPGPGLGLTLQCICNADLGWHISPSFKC
Experimental: (§1) The binding of antibody to each of the synthesized peptides was tested in a pepscan-based ELISA. The peptide arrays were incubated with primary antibody solution (overnight at 4° C.). After washing, the peptide arrays were incubated with a 1/1000 dilution of a goat anti-human HRP conjugate (Southern Biotech) for one hour at 25° C. […] After one hour, the color development was measured. The color development was quantified with a charge coupled device (CCD)—camera and an image processing system.

[2] = target: T2, discontinuous epitope mimic CILQ2HLSSTTAQVTQCI2NADLGWHISPSFKC (Cys-acetamidomethyl (Cys-acm, printed as '2') at positions 5 and 19; Cys at positions 1, 17 and 33 used for the T3 CLIPS scaffold (as for Set 8)); assay: as above
T2 peptide: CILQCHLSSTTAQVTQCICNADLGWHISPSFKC
Experimental: as §1

[3] = target: T3, human TIGIT (T-cell immunoreceptor with Ig and ITIM domains) (human, UniProt Q495A1 22-244); assay: competition flow cytometry against 1 ug/mL hCD155-Fc-AlexaFluor647 on 293-hTIGIT cells
T3 construct: also called hTIGIT
T3 sequence: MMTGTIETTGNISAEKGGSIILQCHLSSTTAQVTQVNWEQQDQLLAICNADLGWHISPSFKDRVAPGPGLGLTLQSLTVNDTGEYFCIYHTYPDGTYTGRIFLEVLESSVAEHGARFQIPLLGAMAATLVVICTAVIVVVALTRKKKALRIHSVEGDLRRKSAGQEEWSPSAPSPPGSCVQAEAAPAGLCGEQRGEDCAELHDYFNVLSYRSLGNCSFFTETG
Experimental: Samples were analyzed on a CytoFLEX flow cytometer. Median fluorescence intensity of the FSC/SSC gated population was determined for each antibody concentration. Percent blockade was calculated relative to the MFI of the no antibody control. NonLinear regression of Log(X) transformed data was performed in GraphPad Prism 6.

[4] = target: T3, human TIGIT (T-cell immunoreceptor with …); assay: competition flow cytometry against hCD112-Fc-AlexaFluor647 on 293-hTIGIT cells
[5] = target: T3, human TIGIT (T-cell immunoreceptor with …); assay: flow cytometry titration on HEK 293 cells expressing human TIGIT
[6] = target: T3, human TIGIT (T-cell immunoreceptor with …); assay: flow cytometry, MFI on human TIGIT HEK 293 cells over parental HEK 293 cells
Experimental: (§2) HEK 293 cells were engineered to stably express high levels of human, mouse or cynomolgus monkey TIGIT by lentiviral transduction. […] Cells were then washed twice with wash buffer and incubated with anti-human IgG conjugated to PE for 15 minutes on ice. Cells were then washed twice with wash buffer and analyzed by flow cytometry on a FACS Canto II instrument (BD Biosciences). Fold over background (FOB) was calculated as the median fluorescence intensity (MFI) of the anti-TIGIT clone bound to target-positive cells divided by the MFI of the anti-TIGIT clone bound to target-negative cells.

cynomolgus monkey TIGIT = target: T4, cynomolgus monkey TIGIT (cynomolgus monkey); assay: flow cytometry, MFI on cyno TIGIT HEK 293 cells over parental HEK 293 cells
T4 construct: On HEK 293 cells (lentiviral transduction) and on cynomolgus peripheral blood T cells; also called cyno TIGIT
T4 sequence (chain, as listed by the source limits assumed): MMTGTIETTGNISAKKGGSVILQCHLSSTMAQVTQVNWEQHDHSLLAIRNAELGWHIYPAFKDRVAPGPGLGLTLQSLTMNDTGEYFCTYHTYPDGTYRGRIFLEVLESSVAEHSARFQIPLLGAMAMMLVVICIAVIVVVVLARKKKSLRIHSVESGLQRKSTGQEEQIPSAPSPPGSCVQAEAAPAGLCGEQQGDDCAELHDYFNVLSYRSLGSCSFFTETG
Experimental: as §2

binding result [1]: binds | binding result [2]: binds
B1: Clone 25 (antibody, V domains shown)
VH: QVQLVQSGAEVKKPGASVKVSCKASGYTFTSYAISWVRQAPGQGLEWMGWISAYNGNTNYAQKLQGRVTMTTDTSTSTAYMELRSLRSDDTAVYYCARDLSSFWSGDVLGAFDIWGQGTMVTVSS
VL: DIQMTQSPSSLSASVGDRVTITCRASQSISSYLNWYQQKPGKAPKLLIYAASSLQSGVPSRFSGSGSGTDFTLTISSLQPEDFATYYCQQSVPPRTFGGGTKVEIK
notes: Fully human IgG from a yeast presentation system; also called anti-TIGIT clone 25

IC50 (read off the curve) [3]: ~0.2 mg/L | IC50 (read off the curve) [4]: ~0.09 mg/L
B2: Clone 13 (antibody, human IgG1, V domains shown)
VH: QVQLVQSGAEVKKPGSSVKVSCKASGGTFSSYAISWVRQAPGQGLEWMGSIIPIFGTANYAQKFQGRVTITADESTSTAYMELSSLRSEDTAVYYCARGPSEVGAILGYVWFDPWGQGTLVTVSS
VL: not shown
notes: Fully human IgG1 ('c13 hIgG1'); also called anti-TIGIT clone 13; c13 hIgG1

IC50 (read off the curve) [4]: ~0.06 mg/L | EC50 [5]: 0.04 mg/L
B3: mouse IgG2a chimera of anti-TIGIT clone 13 (antibody, V domains shown)
VH: QVQLVQSGAEVKKPGSSVKVSCKASGGTFSSYAISWVRQAPGQGLEWMGSIIPIFGTANYAQKFQGRVTITADESTSTAYMELSSLRSEDTAVYYCARGPSEVGAILGYVWFDPWGQGTLVTVSS
VL: not shown
notes: also called c13 mIgG2a

FOB (Fold Over Background) [6]: 190 fold | FOB (Fold Over Background) (cynomolgus monkey TIGIT): 245 fold
B4: Clone 13D (antibody, V domains shown)
VH: QVQLVQSGAEVKKPGSSVKVSCKASGGTFLSSAISWVRQAPGQGLEWMGSIIPYFGKANYAQKFQGRVTITADESTSTAYMELSSLRSEDTAVYYCARGPSEVKGILGYVWFDPWGQGTLVTVSS
VL: not shown
notes: IgG
